The text below walks through data of FireProtDB (doi:10.1016/s0006-3495(99)76955-9).

Sequences and labels used below:
B1: Azurin, P00282 (parent)
chain: MLRKLAAVSLLSLLSAPLLAAECSVDIQGNDQMQFNTNAITVDKSCKQFTVNLSHPGNLPKNVMGHNWVLSTAADMQGVVTDGMASGLDKDYLKPDDSRVIAHTKLIGSGEKDSVTFDVSKLKEGEQYMFFCTFPGHSALMKGTLTLK

The variants in the data set derive from B1. The note with it: Pseudomonas aeruginosa (strain ATCC 15692 / DSM 22644 / CIP 104116 / JCM 14847 / LMG 12228 / 1C / PRS 101 / PAO1); pH 7.03; 20 °C; Thermal; DSC; phosphate buffer 10 mM; sodium chloride 40 microM; reversible: no; structure 5AZU; whole UniProt chain shown.
With MLRKLAAVSLLSLLSAPLLAAEASVDIQGNDQMQFNTNAITVDKSAKQFTVNLSHPGNLPKNVMGHNWVLSTAADMQGVVTDGMASGLDKDYLKPDDSRVIAHTKLIGSGEKDSVTFDVSKLKEGEQYMFFCTFPGHSALMKGTLTLK [C23A C46A], the “unfolding enthalpy (calorimetric)” value is 16 kcal/mol and the unfolding free energy worked out at 7.79 kcal/mol.
